What was measured:
[1] = biological target: T1, soluble recombinant human CD39 protein (Homo sapiens, UniProt P49961); experiment: Inhibition of the enzymatic activity of soluble CD39 (Cell Titer Glo); assay type: biochemical; conditions: result in words
T1 construct: made in house; host or cells: CHO cells
T1 sequence (P49961 with tags, fused parts or gaps): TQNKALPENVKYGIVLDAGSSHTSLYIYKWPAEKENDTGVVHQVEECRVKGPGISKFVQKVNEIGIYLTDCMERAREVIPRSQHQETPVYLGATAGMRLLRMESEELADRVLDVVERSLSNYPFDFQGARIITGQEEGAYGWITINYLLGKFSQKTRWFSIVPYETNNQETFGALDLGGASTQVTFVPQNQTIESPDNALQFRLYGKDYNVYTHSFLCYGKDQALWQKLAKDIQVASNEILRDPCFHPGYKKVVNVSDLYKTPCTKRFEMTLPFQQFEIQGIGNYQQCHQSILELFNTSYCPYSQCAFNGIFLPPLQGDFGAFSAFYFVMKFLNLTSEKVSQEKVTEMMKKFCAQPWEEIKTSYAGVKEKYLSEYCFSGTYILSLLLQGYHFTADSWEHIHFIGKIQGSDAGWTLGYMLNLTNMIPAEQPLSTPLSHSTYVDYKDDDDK
Method: The inhibition by antibodies of the enzymatic activity of soluble CD39 protein produced was evaluated using Cell Titer Glo™ (Promega, reference G7571) that allows assessment of ATP hydrolysis through use of a reagent that generates a luminescent signal proportional to the amount of ATP present. In this way, inhibition of the soluble-CD39-meidatd ATP hydrolysis can be assessed. Briefly, dose ranges of anti-CD39 antibodies from 100 μg/ml to 6×10^−3 μg/ml were incubated with 400 ng/ml of soluble recombinant human CD39 protein having the amino acid sequence described in the Methods section (SEQ ID NO: 39), for 1 h at 37° C. 20 μM ATP was added to the plates for 30 additional minutes at 37° C. before addition of CTG (Cell Titer Glo) reagent. Emitted light was quantified using an Enspire™ luminometer after a short incubation period of 5 min in the dark. Anti-CD39 antibody efficacy was determined by comparing emitted light in presence of antibody with ATP alone (maximal light emission) and ATP together with soluble CD39 protein (minimal light emission).

[2] = test system: CD39 mutants (Table 1) expressed in Hek-293T cells; experiment: Epitope mapping: flow cytometry binding to CD39 mutants in Hek-293T cells; design: species or system human
Method: CD39 mutants were generated by PCR. The sequences amplified were run on agarose gel and purified using the Macherey Nagel PCR Clean-Up Gel Extraction kit (reference 740609). The purified PCR products generated for each mutant were then ligated into an expression vector, with the ClonTech InFusion system. The vectors containing the mutated sequences were prepared as Miniprep and sequenced. After sequencing, the vectors containing the mutated sequences were prepared as Midiprep using the Promega PureYield™ Plasmid Midiprep System. HEK293T cells were grown in DMEM medium (Invitrogen), transfected with vectors using Invitrogen's Lipofectamine 2000 and incubated at 37° C. in a […] incubator for 48 hours prior to testing for transgene expression. The targeted amino acid mutations in the table 1 below are shown using numbering of SEQ ID NO: 1.
In order to define the epitopes of anti-CD39 antibodies, we designed CD39 mutants defined by substitutions of amino acids exposed at the molecular surface over the surface of CD39.
Mutant 5 contains amino acid substitutions at residues Q96, N99, E143 and R147.
Mutants were transfected in Hek-293T cells, as shown in the table 1, using numbering of SEQ ID NO: 1. […] Mutant 19 includes substitutions at residues R138, M139 and E142.
Mutants were transfected in Hek-293T cells, as shown in the table 1, using numbering of SEQ ID NO: 1. […]

- inhibition of the enzymatic (ATPase) activity of soluble CD39 protein [1]: inhibition of soluble CD39
B1: I-399: anti-CD39 antibody, VH SEQ ID NO: 27, VL SEQ ID NO: 28 (antibody, listed as Mus musculus, V domains shown)
VH: PVQLQQPGAEVVMPGASVKLSCKASGYTFTSFWMNWMRQRPGQGLEWIGEIDPSDFYTNSNQRFKGKATLTVDKSSSTAYMQLSSLTSEDSAVYFCARGDFGWYFDVWGTGTSVTVSS
VL: EIVLTQSPTTMTSSPGEKITFTCSASSSINSNYLHWYQQKPGFSPKLLIYRTSNLASGVPTRFSGSGSGTSYSLTIGTMEAEDVATYYCQQGSSLPRTFGGGTKLEIK
- binding to cells expressing mutant 11 of CD39 ([2]; mutant 11: N371K, L372K, E375A, K376G, V377A and insertion 377V): loss of binding
- binding to the other CD39 mutants of Table 1 ([2]; remaining mutants of the 20 generated): without loss of binding to any of the other 20 mutants
